Experimental findings from IntAct's records for PubMed 26280580 are described below.

Sequences and labels used below:
B1: Ras-related protein Rap-1A (Homo sapiens), P62834 (parent)
chain: MREYKLVVLGSGGVGKSALTVQFVQGIFVEKYDPTIEDSYRKQVEVDCQQCMLEILDTAGTEQFTAMRDLYMKNGQGFALVYSITAQSTFNDLQDLREQILRVKDTEDVPMILVGNKCDLEDERVVGKEQGQNLARQWCNCAFLESSAKSKINVNEIFYDLVRQINRKTPVEKKKPKKKSCLLL

Variants of B1 are the subject of the experiment. Particulars: with braf_human BRAF.
For the variant MREYKLVVLGSGGVGKSALTVQFVQGIFVEKYDPTIEDSYRKQVEVDCQQCMLEILDTAGTEQFTAMRDLYMKNGQGFALVYSITAQSTFNDLQDLREQILRVKDTEDVPMILVGNKCDLEDERVVGKEQGQNLARQWCNCAFLESSAKSKINVNEIFYDLVTQINRKTPVEKKKPKKKSCLLL [R163T], the “effect of a mutation on the interaction” value is recorded as “with no effect”.
